Biological target: T1, 人BCMA蛋白 (on 3T3-BCMA cells) (human, UniProt Q02223 1-54)
T1 construct: extracellular domain; also called 3T3-BCMA细胞表面BCMA蛋白; CD269
T1 sequence (looked up): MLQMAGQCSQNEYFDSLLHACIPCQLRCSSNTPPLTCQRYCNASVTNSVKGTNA
Assay: Flow cytometry: PE-labelled 69G8 titrated from 400 nM to 0.025 nM on 3T3-BCMA cells; mean fluorescence fitted with GraphPad Prism 7

B1: 抗人BCMA单克隆抗体69G8 (antibody, V domains shown)
VH: QVQLQQSGAEVVRPGTSVKVSCKASGYAFTNYLIEWVKQRPGQGPEWIGVITPGRGDTKYNAKFAGKATLTADKSSSTAYMQLSSLTFDDSAVYFCARGTTAWFPYWGQGTLVTVSA
VL: DIVLTQSPASLTVSLGQRATISCRASKSVSTSGYSYMHWYQQKPRQPPKLLIYLASNLESGVPARFSGSGSGTDFTLNIHPVEEEDAATYYCQHSRDLPYTFGGGTKLEIKR
notes: also called 69G8抗体; PE标记抗体69G8
- Kd: 13.8 nM

Source: patent publication CN113912720A (BLOOD DISEASES HOSPITAL CHINESE ACADEMY OF MEDICAL SCIENCES …, dated 2022)
